Results reported in publication PMC7594083, “Preclinical Evaluation of the GRPR-Targeting Antagonist RM26 Conjugated to the Albumin-Binding Domain for GRPR-Targeting Therapy of Cancer” (Pharmaceutics, 2020).
One block for each compound: values may come before it.

Tests used:
[1] = test system: PC-3 xenografts; assay: Biodistribution in mice bearing PC-3 xenografts; assay type: in vivo, mice (BALB/c nu/nu female)
Protocol: (§1) Instant thin-layer chromatography (ITLC) results were analyzed using Cyclone® Plus (PerkinElmer). […] BALB/c nu/nu female mice were implanted subcutaneously with PC-3 cells in PBS (6.5 × 10^6 cells/mouse) on the hind leg. […] A group of four mice was used per data point. […] After euthanization, the organs of interest were collected and weighed, and the radioactivity content was measured on a gamma counter.

[2] = Biodistribution in mice bearing PC-3 xenografts; assay type: in vivo, mice (BALB/c nu/nu female); conditions: mouse, in vivo, iv, 40 pmol, 40 pmol i.v., 1 h pi, 4 mice, SD; read-out: activity concentration in blood 1 h pi
Protocol: as §1

[3] = Thermal melting by circular dichroism; assay type: physicochemical; conditions: pH 7.4
[4] = biological target: gastrin-releasing peptide receptor (human (endogenous in PC-3)) (UniProt P30550); assay: radioligand binding
gastrin-releasing peptide receptor (human (endogenous in PC-3)), sequence (P30550 whole entry): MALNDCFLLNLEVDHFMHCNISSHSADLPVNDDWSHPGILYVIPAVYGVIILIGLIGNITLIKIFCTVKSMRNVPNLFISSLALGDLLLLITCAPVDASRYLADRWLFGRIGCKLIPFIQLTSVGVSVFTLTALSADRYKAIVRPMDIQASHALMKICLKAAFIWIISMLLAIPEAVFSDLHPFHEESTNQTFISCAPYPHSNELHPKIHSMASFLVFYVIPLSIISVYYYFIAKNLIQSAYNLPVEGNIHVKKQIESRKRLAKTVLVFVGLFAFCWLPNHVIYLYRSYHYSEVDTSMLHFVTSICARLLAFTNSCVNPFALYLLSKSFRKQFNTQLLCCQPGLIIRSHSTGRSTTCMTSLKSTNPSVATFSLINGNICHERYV

Compound: CC[C@H](C)[C@H](NC(=O)[C@H](Cc1c[nH]cn1)NC(=O)[C@H](CC(C)C)NC(=O)[C@H](CCCCN)NC(=O)[C@H](CC(C)C)NC(=O)[C@H](C)NC(=O)[C@H](CCC(=O)O)NC(=O)[C@@H](NC(=O)CNC(=O)[C@H](CCC(=O)O)NC(=O)[C@@H](NC(=O)[C@@H](NC(=O)[C@H](CCCCN)NC(=O)[C@H](C)NC(=O)[C@H](CCCCN)NC(=O)[C@H](CC(N)=O)NC(=O)[C@@H](NC(=O)[C@H](CC(C)C)NC(=O)[C@H](CCCNC(=N)N)NC(=O)[C@H](CCCCN)NC(=O)[C@H](Cc1ccc(O)cc1)NC(=O)[C@H](Cc1ccccc1)NC(=O)[C@H](CC(=O)O)NC(=O)[C@H](CO)NC(=O)[C@@H](NC(=O)CNC(=O)[C@H](Cc1ccc(O)cc1)NC(=O)[C@H](CCCCNC(=O)CSCCC(=O)NCCOCCOCCOCCOCCC(=O)N[C@H](Cc1ccccc1)C(=O)N[C@@H](CCC(N)=O)C(=O)N[C@@H](Cc1c[nH]c2ccccc12)C(=O)N[C@@H](C)C(=O)N[C@H](C(=O)NCC(=O)N[C@@H](Cc1c[nH]cn1)C(=O)N[C@@H](CC(C)C)[C@@H](O)CC(=O)N[C@@H](CC(C)C)C(N)=O)C(C)C)NC(=O)[C@H](CC(=O)O)NC(=O)[C@H](CC(C)C)NC(=O)[C@H](CCC(=O)O)NC(=O)[C@H](CCCNC(=N)N)NC(=O)[C@H](CC(N)=O)NC(=O)[C@H](C)NC(=O)[C@H](CC(C)C)NC(=O)[C@@H](NC(=O)[C@H](CCCCN)NC(=O)[C@H](C)NC(=O)[C@H](CCC(=O)O)NC(=O)[C@H](C)NC(=O)[C@H](CC(C)C)NC(=O)CN1CCN(CC(=O)O)CCN(CC(=O)O)CCN(CC(=O)O)CC1)C(C)C)C(C)C)[C@@H](C)CC)[C@@H](C)O)C(C)C)C(C)C)C(=O)N[C@@H](CC(C)C)C(=O)N[C@@H](C)C(=O)N[C@@H](C)C(=O)N[C@@H](CC(C)C)C(=O)N1CCC[C@H]1C(N)=O [DOTA-ABD-RM26]
uptake in pancreas, intestines and xenografts, ABD-coupled vs parental RM26 ([1]; 1 h pi, discussion): activity uptake was equal both for ABD-coupled and parental RM26
kidney uptake vs tumor uptake ([1]; all studied time points, 1-144 h pi): higher than that in tumors at all studied time points
uptake in liver and bone ([1]; up to 144 h pi): elevated up to 144 h pi

tissue uptake at 1 h [2]: 0.27 ± 0.04 %ID/g
Compound: CC(C)C[C@H](NC(=O)C[C@H](O)[C@H](CC(C)C)NC(=O)[C@H](Cc1c[nH]cn1)NC(=O)CNC(=O)[C@@H](NC(=O)[C@H](C)NC(=O)[C@H](Cc1c[nH]c2ccccc12)NC(=O)[C@H](CCC(N)=O)NC(=O)[C@@H](Cc1ccccc1)NC(=O)COCCOCCNC(=O)CN1CCN(CC(=O)O)CCN(CC(=O)O)CCN(CC(=O)O)CC1)C(C)C)C(N)=O [[^111In]In-DOTA-RM26, metal not drawn, reference compound]
pancreas and tumor uptake, [^111In]In-DOTA-ABD-RM26 vs [^111In]In-DOTA-RM26 ([1]; 1 h pi): on the same level for both radiolabelled conjugates

Compound: AMALAEAKVLANRELDKYGVSDFYKRLINKAKTVEGVEALKLHILAALP [ABD035, recombinant control protein, reference compound]
melting temperature (Tm) [3]: 54 °C

IC50 [4]: 30 nM
Compound: DOTA-ABD-RM26 (designed binder)

IC50 [4]: 49 nM
Compound: DOTA-ABD-RM26 bound to human serum albumin (from UniProt P02768 25-609) (complex)
